Measurements from article PMC6895700, “SIX3 and SIX6 interact with GEMININ via C-terminal regions” (Biochemistry and Biophysics Reports, 2019).
Where “and” joins values, the source holds several entries; their conditions need not be identical. Equal entries are not always repeated.

T1: MBP-fused full-length SIX3 (SIX3 without aa 1-78) (human, UniProt O95343 79-332)
T1 construct: SIX3, human, without the N-terminal homopolymeric region (aa 1-78, GenBank AF049339); A TEV site lies between the tags and SIX3; also called MBPSIX3; source: E. coli BL21Star (DE3), purified (Ni-NTA HisTrap HP, size exclusion); not shown: MBP, N-terminal, kept
T1 sequence (looked up): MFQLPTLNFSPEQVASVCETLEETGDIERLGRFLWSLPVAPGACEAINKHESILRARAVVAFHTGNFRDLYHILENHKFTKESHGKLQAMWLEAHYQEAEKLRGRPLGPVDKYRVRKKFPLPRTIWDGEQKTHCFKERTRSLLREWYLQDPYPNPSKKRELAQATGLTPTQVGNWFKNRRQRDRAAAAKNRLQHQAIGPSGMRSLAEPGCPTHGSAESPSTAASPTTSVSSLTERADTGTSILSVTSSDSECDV

B1: GEMININ (human, full-length, MBP tag removed) (natural protein, UniProt O75496 1-209, looked up)
chain: MNPSMKQKQEEIKENIKNSSVPRRTLKMIQPSASGSLVGRENELSAGLSKRKHRNDHLTSTTSSPGVIVPESSENKNLGGVTQESFDLMIKENPSSQYWKEVAEKRRKALYEALKENEKLHKEIEQKDNEIARLKKENKELAEVAEHVQYMAELIERLNGEPLDNFESLDNQEFDSEEETVEDSLVEDSEIGTCAEGTVSSSTDAKPCI
notes: The His6 tag lies with MBP at the N-terminus, before the TEV site of pETMBP_1, so it was probably removed with MBP; also called GMNN; source: E. coli BL21Star (DE3), purified (Ni-NTA HisTrap HP, TEV digestion, size exclusion); not shown: MBP, N-terminal, cleaved

Assays:
Conditions in all cases: both partners purified
[1] = molecular target: B1; assay: SPR; Biacore T200, GEMININ (1370 RU) immobilised by amine coupling on a CM5 chip; MBP fusions or MBP alone as analyte; 25 °C; PBS-TCEP (3.5 mM TCEP) with 350 mM NaCl (results: 437 mM NaCl); 30 μl/min; apparent KD from a steady-state fit
[2] = molecular target: T1, MBP-fused full-length SIX3 (SIX3 …); assay: ITC; Nano ITC LV, 25 °C, PBS-TCEP with 300 mM NaCl (results: 437 mM NaCl); 200 μM GEMININ (or its coiled-coil region) in the syringe, 10 μM MBPSIX3 (or MBP alone) in the cell; independent binding sites model; GEMININ-to-MBP control subtracted
[3] = molecular target: T1, MBP-fused full-length SIX3 (SIX3 …); assay: SPR; Biacore T200, GEMININ (1370 RU) immobilised by amine coupling on a CM5 chip; MBP fusions or MBP alone as analyte; 25 °C; PBS-TCEP (3.5 mM TCEP) with 350 mM NaCl (results: 437 mM NaCl); 30 μl/min; apparent KD from a steady-state fit

Binder	Kd [1]	Kd [2]	dH [2]	stoichiometry N [2]	Kd [3]
MBP-fused SIX domain of SIX3 (domain or fragment, Assayed as an N-terminal His6-MBP fusion (left out). Start follows the printed deletion of aa 1-78; end is derived from the stop-codon primer (T-I-W-D-stop), just before the homeobox at 206.) MFQLPTLNFSPEQVASVCETLEETGDIERLGRFLWSLPVAPGACEAINKHESILRARAVVAFHTGNFRDLYHILENHKFTKESHGKLQAMWLEAHYQEAEKLRGRPLGPVDKYRVRKKFPLPRTIWD	19.5 µM and 19.6 µM	–	–	–	–
B1	–	3.4 µM and 3.41 µM	-75.8 kcal/mol	0.55	3.19 µM
